Test results taken from IntAct's records for PubMed 20562859.

Legend:
[1] = target: T1, nek9_human NEK9 (UniProt Q8TD19)
T1 sequence: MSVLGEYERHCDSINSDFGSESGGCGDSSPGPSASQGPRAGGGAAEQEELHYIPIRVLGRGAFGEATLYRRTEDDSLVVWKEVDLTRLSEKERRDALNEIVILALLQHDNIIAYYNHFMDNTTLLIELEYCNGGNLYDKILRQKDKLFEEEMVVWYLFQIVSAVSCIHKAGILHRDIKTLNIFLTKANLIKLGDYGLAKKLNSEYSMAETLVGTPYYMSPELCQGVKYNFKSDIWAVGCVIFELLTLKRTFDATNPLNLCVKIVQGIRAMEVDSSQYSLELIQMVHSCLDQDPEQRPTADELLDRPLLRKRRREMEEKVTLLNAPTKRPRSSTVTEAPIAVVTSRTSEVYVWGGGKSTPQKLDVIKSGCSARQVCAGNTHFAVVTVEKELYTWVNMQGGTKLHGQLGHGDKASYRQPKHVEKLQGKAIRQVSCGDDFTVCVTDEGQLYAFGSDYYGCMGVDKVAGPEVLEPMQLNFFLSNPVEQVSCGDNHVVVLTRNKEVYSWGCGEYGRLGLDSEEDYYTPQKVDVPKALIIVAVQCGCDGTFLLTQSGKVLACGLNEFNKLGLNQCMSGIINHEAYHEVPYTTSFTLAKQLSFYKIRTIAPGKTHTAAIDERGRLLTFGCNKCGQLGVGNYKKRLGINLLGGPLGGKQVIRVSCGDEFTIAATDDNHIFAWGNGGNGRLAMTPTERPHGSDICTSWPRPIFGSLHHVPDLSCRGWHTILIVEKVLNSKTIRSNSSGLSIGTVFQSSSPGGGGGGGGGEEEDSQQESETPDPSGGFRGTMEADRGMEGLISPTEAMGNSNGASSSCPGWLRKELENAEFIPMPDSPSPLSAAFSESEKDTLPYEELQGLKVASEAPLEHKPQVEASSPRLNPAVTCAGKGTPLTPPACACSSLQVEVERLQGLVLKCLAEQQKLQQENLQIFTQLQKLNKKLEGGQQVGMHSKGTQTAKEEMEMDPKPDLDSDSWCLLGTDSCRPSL

[2] = target: T2, fyco1_human FYCO1 (UniProt Q9BQS8)
T2 sequence: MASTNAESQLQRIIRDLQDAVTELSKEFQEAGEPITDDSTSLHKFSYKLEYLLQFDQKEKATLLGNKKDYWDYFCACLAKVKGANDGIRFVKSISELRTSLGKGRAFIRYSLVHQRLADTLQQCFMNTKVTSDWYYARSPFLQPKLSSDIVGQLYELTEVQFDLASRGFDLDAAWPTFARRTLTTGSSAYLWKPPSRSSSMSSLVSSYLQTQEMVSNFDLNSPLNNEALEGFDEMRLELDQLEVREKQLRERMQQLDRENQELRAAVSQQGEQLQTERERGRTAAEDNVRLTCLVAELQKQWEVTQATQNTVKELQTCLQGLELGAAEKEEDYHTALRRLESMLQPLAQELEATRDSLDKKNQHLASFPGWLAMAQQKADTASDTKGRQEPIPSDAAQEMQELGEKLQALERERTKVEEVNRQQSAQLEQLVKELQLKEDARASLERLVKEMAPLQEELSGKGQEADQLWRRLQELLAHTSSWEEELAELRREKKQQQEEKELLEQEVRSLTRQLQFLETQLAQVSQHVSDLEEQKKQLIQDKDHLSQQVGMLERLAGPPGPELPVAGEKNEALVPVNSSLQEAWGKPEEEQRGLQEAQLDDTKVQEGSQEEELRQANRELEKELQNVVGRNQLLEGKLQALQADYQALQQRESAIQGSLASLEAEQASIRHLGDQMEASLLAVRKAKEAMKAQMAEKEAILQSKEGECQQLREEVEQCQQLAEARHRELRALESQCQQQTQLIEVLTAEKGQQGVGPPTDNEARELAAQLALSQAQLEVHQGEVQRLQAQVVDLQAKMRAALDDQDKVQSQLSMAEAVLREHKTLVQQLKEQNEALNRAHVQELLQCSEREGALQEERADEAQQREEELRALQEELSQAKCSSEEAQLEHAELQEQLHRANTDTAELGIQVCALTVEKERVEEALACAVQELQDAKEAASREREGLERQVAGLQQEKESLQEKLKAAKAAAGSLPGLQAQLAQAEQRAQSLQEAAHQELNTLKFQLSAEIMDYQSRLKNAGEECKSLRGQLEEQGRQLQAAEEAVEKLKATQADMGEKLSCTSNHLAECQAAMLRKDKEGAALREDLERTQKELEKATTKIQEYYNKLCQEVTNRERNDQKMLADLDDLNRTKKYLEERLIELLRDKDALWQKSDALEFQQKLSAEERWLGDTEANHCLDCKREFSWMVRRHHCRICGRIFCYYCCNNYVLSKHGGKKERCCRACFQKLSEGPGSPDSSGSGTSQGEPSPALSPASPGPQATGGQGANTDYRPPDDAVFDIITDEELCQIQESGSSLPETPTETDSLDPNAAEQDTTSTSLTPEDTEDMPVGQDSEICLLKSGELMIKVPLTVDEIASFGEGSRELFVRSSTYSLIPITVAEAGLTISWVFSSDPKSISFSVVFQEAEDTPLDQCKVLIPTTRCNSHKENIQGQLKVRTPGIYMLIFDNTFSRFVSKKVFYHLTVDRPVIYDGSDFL

[3] = target: T3, rasf1_human RASSF1 (UniProt Q9NS23)
T3 sequence: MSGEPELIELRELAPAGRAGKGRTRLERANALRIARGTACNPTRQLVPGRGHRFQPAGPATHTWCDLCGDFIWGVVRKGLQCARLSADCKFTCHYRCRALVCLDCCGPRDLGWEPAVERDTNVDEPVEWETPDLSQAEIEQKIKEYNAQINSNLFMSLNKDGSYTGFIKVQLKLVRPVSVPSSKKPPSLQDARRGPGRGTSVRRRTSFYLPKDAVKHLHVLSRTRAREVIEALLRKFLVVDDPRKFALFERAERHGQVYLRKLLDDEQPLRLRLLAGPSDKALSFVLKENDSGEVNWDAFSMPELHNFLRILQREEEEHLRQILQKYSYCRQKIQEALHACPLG

| effect of a mutation on the interaction [2] | effect of a mutation on the interaction [3] | Substance | effect of a mutation on the interaction [1] |
| --- | --- | --- | --- |
|  |  | Microtubule-associated protein 1 light chain 3 beta (Homo sapiens) (from UniProt Q9GZQ8) F52A;L53A | decreasing interaction |
| decreasing interaction | decreasing interaction | Microtubule-associated protein 1 light chain 3 beta (Homo sapiens) (from UniProt Q9GZQ8) R69A |  |
